± gives the uncertainty stated by the source.
Assay: protein stability index of a GFP-peptide fusion (yeast GPS) (PSI 1-4); higher = more stable; sorted into four equal gates, so the index is relative within each strain
In short: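 Sequencing reads from sorted gates were used to score each peptide. The library consisted of tiled 17-residue yeast protein peptides fused downstream of GFP on a Cherry-expressing plasmid, pooled and carried in yeast. Mid-log cultures in leucine-free medium were split into four equal gates by GFP/Cherry ratio, and each gate's plasmids were PCR-amplified and Illumina-sequenced. The protein stability index adds up, over all gates, the read frequency multiplied by the gate number.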

Sequence | protein stability index (doa10∆) | protein stability index (pdr5∆) | protein stability index (san1∆) | protein stability index (ubr1∆)
PVRALIVQAKEPNLAAQ [ECM29] | 2.14 ± 0.11 | 2.6 ± 0.08 | 2.51 ± 0.092 | 2.64 ± 0.059
CMEVASAFMKFSKAIEW [BRR2] | 2.12 ± 0.064 | 2.21 ± 0.047 | 2.42 ± 0.068 | 1.98 ± 0.043
LYNDNNKNNNNRHNLLN [SWI1] | 3.08 ± 0.1 | 1.96 ± 0.062 | 1.95 ± 0.065 | 2.4 ± 0.047
DLDETTQTFNGSIFTHE [YML031W/NDC1] | 2.96 ± 0.05 | 2.85 ± 0.037 | 2.85 ± 0.038 | 2.92 ± 0.033
DHTVDEIDHVEYYVMMD [SRB8] | 3.01 ± 0.083 | 2.63 ± 0.062 | 2.96 ± 0.081 | 3.02 ± 0.047
KTKYILQRPTATDEESV [CSN12] | 3.18 ± 0.084 | 3.12 ± 0.081 | 2.95 ± 0.17 | 3.14 ± 0.2
YDTQLKVSPEELPLVIT [ARP7] | 2.6 ± 0.047 | 2.77 ± 0.062 | 2.59 ± 0.041 | 2.62 ± 0.042
LQPLEEGLIIDTDKLPI [SIN4] | 2.73 ± 0.097 | 2.79 ± 0.074 | 2.75 ± 0.066 | 2.96 ± 0.061
DNATLTELVDKANIFQV [SSN2] | 3.09 ± 0.15 | 3.56 ± 0.12 | 3.21 ± 0.085 | 3.11 ± 0.11
RGAHVEKTMVKKNLGRL [PRP8] | – | 3.29 ± 0.16 | 3.14 ± 0.18 | –
ENFSNGISLVMEIVANA [MED1] | 2.12 ± 0.067 | 2.53 ± 0.054 | 2.5 ± 0.057 | 2.51 ± 0.034
KVEKGVNIEPFNIDDEI [LIN1] | 3.52 ± 0.14 | 3 ± 0.21 | 3.45 ± 0.14 | 3.49 ± 0.076
VHPVNEREPVPLGILHI [RRP45] | – | 2.63 ± 0.16 | – | 2.15 ± 0.19
PALVGKLRGDLREAPAD [SNF6] | 3.19 ± 0.21 | 3.12 ± 0.19 | 2.24 ± 0.19 | 2.5 ± 0.17
VNDNDERAARVVKGRVE [RPO31] | 3.17 ± 0.16 | 3.36 ± 0.15 | 3.15 ± 0.25 | 3.4 ± 0.091
RPSITEAMMLKEEGLQQ [MED1] | 3.41 ± 0.25 | 3.65 ± 0.2 | 3.16 ± 0.061 | 2.94 ± 0.21
ADVTSNIDSSAQFTFGK [YOR098C/NUP1] | 3.05 ± 0.093 | 3.25 ± 0.087 | 2.89 ± 0.091 | 3.13 ± 0.057
TSGEAAALGMGLCMLGT [RPN2] | 2.92 ± 0.19 | 2.95 ± 0.21 | 3.08 ± 0.12 | 2.68 ± 0.1
FLQDKVQIKDVNDRYQI [CSI1] | 3.28 ± 0.18 | 1.58 ± 0.12 | 1.05 ± 0.17 | 3.37 ± 0.21
TTKLAFLVEYEGQENNY [SIR4] | 2.87 ± 0.085 | 2.85 ± 0.068 | 2.4 ± 0.1 | 3.19 ± 0.052
TRLWGSVYYHKGNFRTK [SNU114] | 3.35 ± 0.064 | 3.46 ± 0.093 | 3.35 ± 0.06 | 3.32 ± 0.082
QFNAQGVRDINCVNDVL [POP1] | 2.92 ± 0.17 | 2.92 ± 0.17 | 2.91 ± 0.11 | –
YSIDEFFLQRKLRSELG [BRR2] | 2.3 ± 0.12 | 2.06 ± 0.13 | 1.8 ± 0.16 | 1.5 ± 0.22
NIVSDAGANDTSNNETN [GRR1] | 2.79 ± 0.051 | 2.37 ± 0.2 | 1.82 ± 0.15 | 2.71 ± 0.099
AYVVNDTAPKPNIVEID [DLS1] | 3.26 ± 0.24 | 3.22 ± 0.19 | 2.97 ± 0.11 | 3.15 ± 0.19
QRTTTGARVFGALKGAS [RPL5] | 2.88 ± 0.2 | 2.52 ± 0.2 | – | 3.05 ± 0.16
VKPQYDEIHIPAPSKPV [BRR2] | 2.59 ± 0.097 | 2.59 ± 0.12 | 2.41 ± 0.084 | 1.83 ± 0.093
VHDIFSKIFNESFPDDI [CDC53] | 2.86 ± 0.069 | 2.91 ± 0.065 | 2.87 ± 0.059 | 2.82 ± 0.06

Sequence | protein stability index (doa10∆) | protein stability index (pdr5∆) | protein stability index (san1∆) | protein stability index (ubr1∆)
HHAIEEAESLLQFHVAT [RPO21] | 2.67 ± 0.094 | 2.89 ± 0.13 | 2.64 ± 0.11 | 2.94 ± 0.087
TREDVSPHYNSQKQTLI [SSN3] | 2.16 ± 0.05 | 2.71 ± 0.05 | 2.15 ± 0.048 | 2.81 ± 0.051
SDAMSIDEEDKDSESFS [YCG1] | 2.85 ± 0.15 | 1.95 ± 0.1 | 2.61 ± 0.13 | 2.4 ± 0.069
KDEPVQNDILQESFINT [FAS2] | 2.94 ± 0.089 | 3.14 ± 0.12 | 3.02 ± 0.052 | 3.21 ± 0.082
EGKRIAFGFVDRTLPHF [RPO21] | 2.89 ± 0.058 | 2.98 ± 0.054 | 2.95 ± 0.048 | 3.13 ± 0.035
VLSLGRPNLPTHNFKLS [RGR1] | 3.04 ± 0.17 | – | – | –
YVRAKFLDYTTDNVSMY [PRP8] | 2.82 ± 0.059 | 2.73 ± 0.064 | 2.54 ± 0.063 | 2.82 ± 0.061
LEKFLQGRDTSKLPDPE [SRP72] | 2.76 ± 0.11 | 2.2 ± 0.06 | 2.38 ± 0.11 | 2.77 ± 0.051
IRARIPFYGSYTETDPA [SRP54] | 2.96 ± 0.092 | 2.91 ± 0.082 | 2.98 ± 0.06 | 2.96 ± 0.076
GEYSVKLLKGATLYIPK [FAS2] | – | 2.87 ± 0.21 | 2.9 ± 0.12 | –
RDDALVVETITSLLNKV [RRP42] | 2.88 ± 0.071 | 2.83 ± 0.048 | 3.1 ± 0.054 | 3.06 ± 0.045
TQTSKEQEIENNGLPMK [ITC1] | 2.9 ± 0.075 | 3.2 ± 0.12 | 2.87 ± 0.1 | 2.86 ± 0.089
HSRKMNLTRGINLRKVA [RPT6] | 1.26 ± 0.075 | 1.36 ± 0.05 | 1.3 ± 0.11 | 1.2 ± 0.043
LQRDLIQTKEQVSINSN [YIL149C/MLP2] | 2.78 ± 0.072 | 3.12 ± 0.089 | 3.11 ± 0.065 | 3.27 ± 0.059
NEPAARLGSEADAKAFL [FAS2] | 3.45 ± 0.065 | 3.42 ± 0.058 | 3.35 ± 0.042 | 3.31 ± 0.077
WLVVPTIYNLQHHVTDA [YML031W/NDC1] | 1.38 ± 0.03 | 1.62 ± 0.033 | 1.46 ± 0.05 | 1.37 ± 0.027
FNPQDTEENIKGETNSE [RRP45] | 3.36 ± 0.26 | 3.19 ± 0.14 | 3.22 ± 0.19 | 3.12 ± 0.18
LKEDDSSLYEASLNALK [RPN1] | 3.44 ± 0.24 | 3.18 ± 0.14 | 3.5 ± 0.12 | 2.95 ± 0.093
AAHYNRERIKRGAHVEK [PRP8] | – | – | 2.79 ± 0.29 | 2.77 ± 0.19
FVDDTNVYRVTVHKTFE [PRP8] | 2.68 ± 0.087 | 2.74 ± 0.11 | 2.21 ± 0.096 | 2.52 ± 0.068
NNDDDDNSVEQGRRLGE [MCD1] | – | 3.46 ± 0.21 | – | 3.37 ± 0.12
MANLSQIYTQRAYMRPL [SCL1] | 1.66 ± 0.06 | 1.46 ± 0.074 | 1.47 ± 0.12 | 1.54 ± 0.043
SKLSKNISFYKLHVNWN [SIN4] | 2.04 ± 0.076 | 1.79 ± 0.071 | 2.02 ± 0.11 | 2.04 ± 0.06
KGAGLSMGTMICGYTRK [PRE2] | 1.64 ± 0.16 | 1.27 ± 0.17 | – | 1.11 ± 0.17
NNQQRLLLKKLDNFQKS [SMC3] | 2.55 ± 0.06 | 2.64 ± 0.068 | 2.41 ± 0.054 | 2.45 ± 0.043
VSYMMPSLYRLLNILIT [SRB8] | 1.22 ± 0.12 | 1.21 ± 0.07 | 1.1 ± 0.12 | 1.3 ± 0.057
NFKMLVLLATWNLEKWR [IRR1] | 1.32 ± 0.053 | 1.3 ± 0.071 | 1.5 ± 0.12 | 1.56 ± 0.038
